Test: soluble on expression in E. coli; label from the status in PepcDB or PDB records

Sequence | soluble on expression in E. coli
MSDEESFVILGSSPCSSLMPDSSLRSDVCGNAQEAKETVASTSTQPPTVNCIPVSITASQQQHKSLDSGSSQQQSLATSFIMGEIQSDVLKNSVYSQFPSLCSLQGSAEEVVKLQNMMTEYLALKSQPNHAELPQPDSTMAPGSRRPRTPVQGACERVPSANRDPSRGKPRAEEGPRDENRADLEHHHHHH | not soluble
MSDEVPEILLAHYLKTLKLPTFQREYQKLARLCATEGVDHVEYLLRLSEREMIERDRRKVERRIKAARFPVVKSLDSFDFAAIPKLNKMQVLELARCEWIERRENVIALGPSGTGKTHVALGLGLAACQKGLSVGFTTAAALVSEMMEARDERRLLRFQKQMAAYQLLIIDELGFVPLSKTGAELLFELISQRYERGATLITSNLPFDEWTETLGSERLTGALLDRITHHVNILEMNGDSYRLAQSRARKAGAAALEHHHHHH | soluble
MSDIEVFELDDNFDPLEDIGLVDEEDIEHHDYQMPIPDAELSVVPEPVQLTPREKMDKLIAGIPGHKQRIVEVIRICEEPLTASEIEERLNDTYPQSASVYDAARIADLLVEAEGLVRLNAEEGADEETVAAPKTDTEHPEADVDAVVTPHAGVDETGDYLEVQPPEPSRYVATDEGLAFVAAMTDMAPVMELLEKEPRYLPIYERILRMTSNEEGCGKAELNKAIDSDELCQEPRRYTEYFLFRLQEVAAVRWNRVWYATDLGTSALNSNIFTK | not soluble
MSDKKDFENNYEKTEDAWPIGVELVEHEISTGIWVTTQWQLTGFALNPTEETPDVCLLQLHKDERTDYRFNLSSQQPKLFLVMDNVESGEKPAIQLLTASQSVAAQYMDGDNLVLSNDMPLAVQAWMEAFIGRHGELLEVRRKKRKGAGRANGN | not soluble
MSDLVMFEPGASTSTDVPTNTDQTAMSTTQVVDALECDTFEGLMNVNETYVEILDSALLSVQQHLDDNLKRQQQLKEEYRLYNRADITKRKVPVHLYMPPYFKDDNNMYPPMSSEAREKQVLKWFDPMMKEEKKWTPSEIKTLRTSVKNALVAHQVQPWCSRRDIVASKLRDADITTSNFDRRQWTMELEDLMRKIAYVREKSEEEVLTASADYTVVPWTAIANFDFKGSRTEWAVKSKWYNELNPKWNKEHWSNEEVEKLKYLRESPKFVSWPMLALNLGTNRTSYQCMEKYKTEVSQHSKEWSQDEDTKLIALTKITSINGHIQWDKVAQCMPGRTRQQVRTRFSHTLDASVKHGRWTDQEDVLLVCAVSRYGAKDWAKVAQAVQNRNDSQCRERWTNVLNRSAHVNERFTLVEDEQLLYAVKVFGKGNWAKCQMLLPKKTSRQLRRRYLQLIAAKLRLAAGFCNAVDAMKSGRRAPEEDELEQEDIVEAEQIPNELMKEVYEKFANENPDMNETPEEFYKRVSALERPAAARIRALKNKPDYQKIQDKINEIVQKHKNAAEIDKELHSSEILSSLTITEVDVRYMIERSKTLTRYYEARQFRKNVDQIGCRVRPIKIDLDPETMPTFDPNDAEDEKQMVIVESLCSVIRAHDVKEWGTKFWNEHRFTAPKYAKRFVENMVINKSKEVAEWYLHVNSKSCNQNDVHCPAKSTLPPTAASFDLHKMLQKARSGLNRLSAEHFYPLDVSLAQQFNFKNDEREGLDGDRRMHIGLSDEVTNSKEYANFYARMRSILLEPMRLGIARESSSDETKRLVRCLAEERACDEEQQVTCDQIRRRRMPDDEIYVTPTSISRELNNGMKIDTTELLANLDKNSAKKIRMKRKIGEVRCDTKIKLLPLVILATVATVAARPARPPRSSAGTPTPSHVSIDTESNISLKVELD | not soluble
MSDNALSPQKNHRRLAETLVDRFAQRMRDGVLVRGEKLPSEIHIMEAEGVSRTVVRDALSRMQAAGLVETRHGVGTFVLDMPPPEGFSVGPATIASVADVLNLLEFRLSLEVEAAGLAAQRRSPEALLELKRAFDALLEGPQKSGTTINADFQFHLKIAKASGNAYLIDIMKHLGTKLIPRTRMNSAYTGQSDRSAYLAGINAEHRQIYNAIAEGNVDAARAAMYLHLNGSRMRLRRTQALYSD | not soluble
MSDSAVVAAAVEPKVPKAKAAKAAKPTKVAKAKAPVAHPPYINMIKEAIKQLKDRKGASKQAILKFISQNYKLGDNVIQINAHLRQALKRGVTSKALVQAAGSGANGRFRVPEKAAAAKKPAAAKKPAAAKKPAAAKKATGEKKAKKPAAAKPKKAATGDKKVKKAKSPKKVAKPAAKKVAKSPAKKAAPKKIAKPAAKKAAKPAAKA | soluble
MSDVATLESFRLADSFLPVGTYTVSYGLEQFIQDDRVEDATDLEGLLSTYLRRQIGPAELVALRAAHAAATDGDIEAICHADQRLSAVTLAAEFRESAQQSGDRLLSLQTELRDEALLNRYAERVDADDAPGNYAVVLGVATGLADVAVREACLLCCHGFVTGLLGAAQRLLSLGHTDAQRILNDLQPVMTAAVDDSADRGIDEMTPFAPLVDVLAAEHERAERRLFASLEHHHHHH | not soluble
MSDVIFLRQYDDIDIVSSPSQNNIIFGHEAARHFLAQILKEERLPHAILFEGDYGIGKATLAFHLAWNILSSQKDGFKQPEHNSVIWRQITQGSHPGLLHISRRFDVKTQKFKTGILFDDIRDIIHFLNRTSKDSGWRIVIIDPADDMNRNAANAILKTLEEPPAKTLFIIITHFSGKLLPTIRSRCQQISLRPLHNDEMKKIIIHMFSNQNVIDEENIGMIIQKSNGNPRKAALLIHGGFEIIKTIDTLLGQSVCNPTIVHNLAQTLSSLSSVIQFQQFCDEILDKIQKKAIMLAERGNLALSKKCAQAWQEIHQEIGEIQSFNLDKKQFIINLLFRVHKIICESELFP | not soluble
MSDVPHLRFPEFSGEWEEHTLSEYLEFKNGLNPDAKRIGSGLPFISVMDILSEGVINYDNIRGKVNATEKEIECFGVKDGDLLFQRSSETLEDVGRANVYMDNRTAIYGGFVIRGRKIGNYDPLFFKYLLATPLARKRTCRMGAGAQHFNIGQEGLSKISLYFPSIEEQRKIAEFLSLIDERIATQNKIIEDLKKLKSAISLNVLHSDKWEQFKIKDIAQIGRGRVISSIEIGQQKSPTYPVYSSQTSNDGIMGYLDDYMFEGEYISWTTDGANAGTVFYRNGKFNCTNVCGLLKLRKEFDTHFVSLVLAEATKKYVSINLANPKLMNNTMGNIQIRLPKLEEQKRISIVFRVLQRLWTVHNSLLTEYTKQEQYLLSQMFILEHHHHHH | not soluble
MSDVQSSLTGTWYNELNSKMELTANKDGTLTGKYLSKVGDVYVPYPLSGRYNLQPPAGQGVALGWAVSWENSKIHSATTWSGQFFSESSPVILTQWLLSSSTARGDVWESTLVGNDSFTKTAPTEQQIAHAQLHCRAPRLK | soluble
MSEEDWPSPKFREHVIQRLEPELARNRQNAPNLPVPGDARQVEEYVFAKCMSKDEYMRTIAKVINAINCNSKSAAVPSVLQPSQFHSPPCTTAGNTPAGGTPGYRAPVPPDPQPTSAQARNPPVTVATTQASTTPSAPNPPGGLPAPSASATAAVAAAVASFPSPDTSIRPGGQITPGSQAPGGGPTPAPNVPFPNGSSQMNGGPAMGQPPPQMGAPNMGGPPNGYGGYGMMNGPPGSGAPMGGNPYNQQIKKDMDQARPWDPSAHMYQQQPQWGAMPPQQPHGYPGRPMNGQGATPTGPSSVLESLINQPQQYPGHHNQMGPPGDRNVAAQRAAAQQQQQQQQQQQQQRPGMVPNQGMMSSEDQTVYSAKLRNMRGSCDSLRTRARQCRHEGNHEAAHKLEVMLSVLEGKRVVSLEYLNHLEMWIARKQDFLNIAPMSQNQNHMGMNDPMMNGEHAMLGNGQVPNPYGGHPGYGHQQYMGPPPPHMQMHQPPMWHQQQHQQQQRMMPQDHMMMQGGGGPVHGMYRGDMGHDPMTSPVNNHRHAPYPNPAAMRNNMRMPNGPGPIGRDRNSMSGSSMSGPSSGAPSMNPMGTPNQKMGTPGSMGGMSGLDDLNYDDFLPNPTPIDALQPTLHVGQNSMNAGPPVQRSNLNETARKELQILDARFEIDPNHQRHDANHIIVVCKIRNQQFPPLRLVVPTTYPAGNVTVDRAVIDLDAYLYDDLQNSVYERLSRPGLSSITDYLNAWEEQVNQYQNQTSGGLDVAFNVGNDFFYDNLNL | not soluble
MSEENRVGSKIRQLREARDMTVEELAEASQSSSELIQQLENGALVPSLTPLLKIARALGVRLGTFLDDMPQSGPVLVRSGLSENVVRFSGKTERPKKSALEFYSLASDKADRHMEPFIIDIHPSPEESHTLSSHEGEEFIYVLSGEIEIFYGKDVHRLSEGDSIYYDSIVPHDVHAAGKEDARIMAVVYAPL | not soluble
MSEFFIQEQQLGKVTRTIVKDQAGRSLFLLVGRWGTRGDALSLYAMNGEILASIKQVSWTFGTRFELYQRFEKVGTLRKLFNLNADFYYVQGLHWAVVGDIKAHQYSIYQVHKKIMSMDKTMLCTGDYFVLTVANDEDAPLCICIAAVLDYWLYNKKKQKTSDDFGLDFDPLTD | not soluble
MSEGWNIAVLGATGAVGEALLETLAERQFPVGEIYALARNESAGEQLRFGGKTITVQDAAEFDWTQAQLAFFVAGKEATAAWVEEATNSGCLVIDSSGLFALEPDVPLVVPEVNPFVLTDYRNRNVIAVPDSLTSQLLAALKPLIDQGGLSRISVTSLISASAQGKKAVDALAGQSAKLLNGIPIDEEDFFGRQLAFNMLPLLPDSEGSVREERRIVDEVRKILQDEGLMISASVVQAPVFYGHAQMVNFEALRPLAAEEARDAFVQGEDIVLSEENEFPTQVGDASGTPHLSVGCVRNDYGMPEQVQFWSVADNVRFGGALMAVKIAEKLVQEYLY | soluble
MSEIINNREYRQKVLKELIRELHDGKSVEEIKPRFEELIKGISPAEISEMEQALIMEGMPVEEIQRLCDVHAAVFKGSIEEIHRPQKPEEVPGHPIHTFKLENAEIRKLVDNEIRPQLELYKNGDTAESLKKLREAFQKLWEIDKHYSRKENLLFPYLEKYGITAPPKVMWGVDDEIRADIKEINNKLSANAQNQNIPLEKAEEAVNRVIEMIFKEENILFPMALETLTEDEWAEIARASDEIGYCMITPEAEWKPARVDVVEKTQKEGVKSQENQGFVEFDAGCLTTEEINAMLNTLPIDITFVDKNDTVKYFTQGKERIFARPKTIIGRKVQNCHPPASVHIVEKIIEDLKSGKKDHEDFWIKMGEKYVYIRYFAVRNEKGEYLGTIEVTQDIAPIQKITGEKRLLSDA | soluble
MSEKKAVIGVVTISDRASKGIYEDISGKAIIDYLKDVIITPFEVEYRVIPDERDLIEKTLIELADEKGCSLILTTGGTGPAPRDVTPEATEAVCEKMLPGFGELMRQVSLKQVPTAILSRQTAGIRGSCLIVNLPGKPQSIKVCLDAVMPAIPYCIDLIGGAYIDTDPNKVKAFRPKK | soluble
MSEKLQKVLARAGHGSRREIESIIEAGRVSVDGKIAKLGDRVEVTPGLKIRIDGHLISVRESAEQICRVLAYYKPEGELCTRNDPEGRPTVFDRLPKLRGARWIAVGRLDVNTCGLLLFTTDGELANRLMHPSREVEREYAVRVFGQVDDAKLRDLSRGVQLEDGPAAFKTIKFSGGEGINQWYNVTLTEGRNREVRRLWEAVGVQVSRLIRVRYGDIPLPKGLPRGGWTELDLAQTNYLRELVELPPETSSKVAVEKDRRRMKANQIRRAVKRHSQVSGGRRSGGRNNNG | soluble
MSEKLQVVTLLGSLRKGSFNGMVARTLPKIAPASMEVNALPSIADIPLYDADVQQEEGFPATVEALAEQIRQADGVVIVTPEYNYSVPGGLKNAIDWLSRLPDQPLAGKPVLIQTSSMGVIGGARCQYHLRQILVFLDAMVMNKPEFMGGVIQNKVDPQTGEVIDQGTLDHLTGQLTAFGEFIQRVKI | not soluble
MSELFKKLMDQIEMPLEMKNSRVFSSADIVEVKVYPESRIWDFRFSFETILPIDFYQELRSRLVTSFETADIKAVFDIEVENAEFSNELLQAYYQEAFKQPTCNSASFKSSFSHLTVSYTDGKVLISAPQFVNNDHFRKNHLPNLEKQFEAFGF | not soluble
